What was measured:
Assay in all cases: cell-based or functional assay
[1] = target: CaMKIIδ(h) (human), Q13557
CK1δ(h) (human), P48730 = target: CK1δ(h) (human), P48730
PKCβI(h) (human), P05771 = target: PKCβI(h) (human), P05771
PKG1α(h) (human), Q13976 = target: PKG1α(h) (human), Q13976
[2] = target: CaMKIδ(h) (human), Q8IU85
MKK7β(h) (human), O14733 = target: MKK7β(h) (human), O14733
[3] = target: JNK2α2(h) (human), P45984

MKK7β(h) (human), O14733, sequence (O14733 whole entry): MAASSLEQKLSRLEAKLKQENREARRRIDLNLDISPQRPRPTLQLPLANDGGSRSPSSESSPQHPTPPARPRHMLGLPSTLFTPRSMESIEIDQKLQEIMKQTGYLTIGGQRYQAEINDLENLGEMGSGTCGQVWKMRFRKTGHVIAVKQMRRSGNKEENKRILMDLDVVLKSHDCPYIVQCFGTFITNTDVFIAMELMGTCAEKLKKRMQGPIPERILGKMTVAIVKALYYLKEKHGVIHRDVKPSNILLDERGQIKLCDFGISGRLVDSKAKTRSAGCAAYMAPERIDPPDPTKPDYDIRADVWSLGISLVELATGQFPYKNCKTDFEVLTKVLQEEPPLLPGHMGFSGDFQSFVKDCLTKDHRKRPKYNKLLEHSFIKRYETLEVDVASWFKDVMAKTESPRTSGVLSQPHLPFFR
CK1δ(h) (human), P48730, sequence (P48730 1-294, stated change not applied): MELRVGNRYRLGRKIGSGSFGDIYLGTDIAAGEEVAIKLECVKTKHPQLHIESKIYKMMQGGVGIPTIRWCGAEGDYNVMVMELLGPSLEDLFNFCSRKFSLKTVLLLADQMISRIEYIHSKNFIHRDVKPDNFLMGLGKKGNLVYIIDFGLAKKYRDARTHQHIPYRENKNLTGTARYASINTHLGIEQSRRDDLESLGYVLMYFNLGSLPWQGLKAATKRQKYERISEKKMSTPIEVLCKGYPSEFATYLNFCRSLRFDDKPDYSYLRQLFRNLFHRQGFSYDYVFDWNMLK
PKG1α(h) (human), Q13976, sequence (Q13976 whole entry): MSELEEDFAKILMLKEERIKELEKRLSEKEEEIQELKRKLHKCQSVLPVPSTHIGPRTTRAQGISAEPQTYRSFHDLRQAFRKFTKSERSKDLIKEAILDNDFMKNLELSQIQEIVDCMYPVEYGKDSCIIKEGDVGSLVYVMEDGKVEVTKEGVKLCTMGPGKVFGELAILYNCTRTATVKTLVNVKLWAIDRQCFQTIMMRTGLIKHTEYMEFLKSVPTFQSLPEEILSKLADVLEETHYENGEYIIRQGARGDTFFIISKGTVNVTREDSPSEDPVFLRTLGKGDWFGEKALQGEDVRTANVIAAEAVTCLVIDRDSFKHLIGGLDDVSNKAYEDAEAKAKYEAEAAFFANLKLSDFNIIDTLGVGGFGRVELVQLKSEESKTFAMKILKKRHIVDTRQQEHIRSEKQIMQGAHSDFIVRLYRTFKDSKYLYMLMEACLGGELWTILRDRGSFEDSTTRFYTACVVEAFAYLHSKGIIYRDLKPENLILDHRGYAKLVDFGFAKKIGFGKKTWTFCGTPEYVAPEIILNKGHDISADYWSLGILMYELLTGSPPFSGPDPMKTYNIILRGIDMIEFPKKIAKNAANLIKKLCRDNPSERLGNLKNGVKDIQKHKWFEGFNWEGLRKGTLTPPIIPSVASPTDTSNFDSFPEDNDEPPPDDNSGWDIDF
CaMKIIδ(h) (human), Q13557, sequence (Q13557 whole entry, stated change not applied): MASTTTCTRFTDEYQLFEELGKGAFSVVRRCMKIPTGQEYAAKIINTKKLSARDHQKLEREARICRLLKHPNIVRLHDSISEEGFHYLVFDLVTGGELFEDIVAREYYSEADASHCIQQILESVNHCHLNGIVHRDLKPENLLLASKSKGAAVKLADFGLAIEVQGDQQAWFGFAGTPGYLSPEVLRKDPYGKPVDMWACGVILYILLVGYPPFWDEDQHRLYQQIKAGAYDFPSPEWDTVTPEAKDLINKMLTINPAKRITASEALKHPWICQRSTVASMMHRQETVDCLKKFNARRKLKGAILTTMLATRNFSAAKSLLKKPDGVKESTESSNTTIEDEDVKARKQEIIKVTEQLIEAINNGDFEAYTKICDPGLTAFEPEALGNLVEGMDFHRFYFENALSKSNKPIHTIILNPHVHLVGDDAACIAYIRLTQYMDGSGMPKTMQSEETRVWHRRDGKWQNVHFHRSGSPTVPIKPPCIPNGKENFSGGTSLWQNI
PKCβI(h) (human), P05771, sequence (P05771 whole entry): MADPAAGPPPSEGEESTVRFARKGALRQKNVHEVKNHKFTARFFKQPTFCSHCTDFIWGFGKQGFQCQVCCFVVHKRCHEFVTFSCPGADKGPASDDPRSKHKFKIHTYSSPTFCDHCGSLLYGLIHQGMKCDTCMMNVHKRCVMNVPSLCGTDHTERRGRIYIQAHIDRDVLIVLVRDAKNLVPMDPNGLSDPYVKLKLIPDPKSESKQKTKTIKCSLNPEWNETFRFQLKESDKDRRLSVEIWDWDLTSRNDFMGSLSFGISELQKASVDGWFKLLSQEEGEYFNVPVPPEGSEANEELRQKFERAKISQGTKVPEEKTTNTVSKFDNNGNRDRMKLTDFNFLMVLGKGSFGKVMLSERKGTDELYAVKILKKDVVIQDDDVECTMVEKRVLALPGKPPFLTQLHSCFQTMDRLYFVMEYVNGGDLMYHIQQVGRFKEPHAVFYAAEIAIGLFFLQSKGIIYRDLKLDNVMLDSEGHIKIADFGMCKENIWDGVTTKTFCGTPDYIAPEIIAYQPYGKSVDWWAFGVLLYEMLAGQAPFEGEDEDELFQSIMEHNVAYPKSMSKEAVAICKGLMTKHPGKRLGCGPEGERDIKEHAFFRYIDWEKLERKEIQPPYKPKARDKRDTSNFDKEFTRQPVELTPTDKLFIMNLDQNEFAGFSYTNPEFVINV
CaMKIδ(h) (human), Q8IU85, sequence (Q8IU85 whole entry, stated change not applied): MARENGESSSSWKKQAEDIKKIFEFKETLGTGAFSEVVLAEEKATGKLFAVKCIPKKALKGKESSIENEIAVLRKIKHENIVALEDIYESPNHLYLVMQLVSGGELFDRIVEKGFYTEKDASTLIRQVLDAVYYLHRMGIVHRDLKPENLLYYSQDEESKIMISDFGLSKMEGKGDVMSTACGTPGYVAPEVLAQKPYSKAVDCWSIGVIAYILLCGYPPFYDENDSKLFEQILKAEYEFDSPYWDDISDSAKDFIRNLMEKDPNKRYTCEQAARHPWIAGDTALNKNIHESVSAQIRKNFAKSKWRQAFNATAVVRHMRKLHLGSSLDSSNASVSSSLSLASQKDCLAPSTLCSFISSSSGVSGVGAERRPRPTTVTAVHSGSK

% activity [1] | % activity (CK1δ(h) (human), P48730) | % activity (PKCβI(h) (human), P05771) | % activity (PKG1α(h) (human), Q13976) | % activity [2] | % activity (MKK7β(h) (human), O14733) | % activity [3] | Binder
1% | 92% | 78% | 64% | 10% | 100% | 98% | FAKLAARLYRKALARQLGVAA [MMI-0300]
2% | 93% | 78% | 58% | 17% | 94% | 96% | KAFAKLAARLYRKALARQLGVAA [MMI-0400]
